Data published in the RNAGym collection of RNA variant scans (doi:10.1093/molbev/msab373).

B1: Azoarcus group I ribozyme (parent)
chain: GUGCCUUGCGCCGGGAAACCACGCAAGGGAUGGUGUCAAAUUCGGCGAAACCUAAGCGCCCGCCCGGGCGUAUGGCAACGCCGAGCCAAGCUUCGGCGCCUGCGCCGAUGAAGGUGUAGAGACUAGACGGCACCCACCUAAGGCAAACGCUAUGGUGAAGGCAUAGUCCAGGGAGUGGCGAAAGUCACACAAACCGG

Variants of: B1
Experiment: reverse-splicing fitness (ratio to wild type); higher = more active; in vitro selection; Mg2+ level not given
Outline: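 An in vitro group I ribozyme library with randomized positions was T7-transcribed and gel-purified. In triplicate, 10 pmol RNA in EPPS pH 7.5 was reacted with 50 pmoles of a 30-nt RNA substrate for 1 h at 37 °C across several added MgCl2 levels (1–48 mM), then stopped with EDTA. Products were reverse transcribed from a substrate-complementary primer, PCR-amplified and sequenced (HiSeq 4000). Fitness is a variant's read proportion after selection over that before, normalised to wild type.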
In the case of C82U A111G A120U A145U C150A U176G, the reverse-splicing fitness is reported as 0.00212.
Work on C82U A111G A120U A145U C150U C169A U176G yielded a reverse-splicing fitness of 0.00165.
C82U A111G A120U A145U C150U C169A U176C showed a reverse-splicing fitness of 0.0023.
C82U A111G A120U A145U C150U C169A U176A gave a reverse-splicing fitness of 0.00289.
With C82U A111G A120U A145G C150A C169U U176G the reverse-splicing fitness was 0.00215.
With C82U A111G A120U A145G C150A C169U U176C the reverse-splicing fitness was 0.00341.
With C82U A111G A120U A145G C150A C169U U176A the reverse-splicing fitness was 0.00427.
In the case of C82U A111G A120U A145U C150G, the reverse-splicing fitness is reported as 0.00775.
C82U A111G A120U A145U C150A gave a reverse-splicing fitness of 0.00631.
Variant C82U A111G A120U A145U C150U has a reverse-splicing fitness of 0.0272.
Variant C82U A111G A145G C150G C169A U176G has a reverse-splicing fitness of 0.00737.
With C82U A111G A145G C150G C169A U176C the reverse-splicing fitness was 0.0111.
In the case of C82U A111G A145G C150G C169A U176A, the reverse-splicing fitness is reported as 0.012.
C82U A111G A120U A145G C150A C169A U176A gave a reverse-splicing fitness of 0.00624.
Variant C82U A111G A120U A145G C150A C169A U176G has a reverse-splicing fitness of 0.00258.
C82U A111G A120U A145G C150A C169A U176C gave a reverse-splicing fitness of 0.00365.
C82U A111G A120U A145G C150U U176G gave a reverse-splicing fitness of 0.00327.
Variant C82U A111G A120U A145G C150U U176C has a reverse-splicing fitness of 0.0134.
Variant C82U A111G A120U A145G C150U U176A has a reverse-splicing fitness of 0.00999.
With C82U A111G A120U C150G C169A the reverse-splicing fitness was 0.00636.
With C82U A111G A120U C150G C169U the reverse-splicing fitness was 0.004.
For C82U A111G A120U C150G C169G, the reverse-splicing fitness was 0.00572.
C82U A111G A120U C150U C169A U176G showed a reverse-splicing fitness of 0.00203.
For C82U A111G A120U C150U C169A U176A, the reverse-splicing fitness was 0.00365.
With C82U A111G A120U C150U C169A U176C the reverse-splicing fitness was 0.00318.
For C82U A111G A120U C150U U176G, the reverse-splicing fitness was 0.00374.
In the case of C82U A111G A120U C150U U176C, the reverse-splicing fitness is reported as 0.0105.
Variant C82U A111G A120U C150U U176A has a reverse-splicing fitness of 0.00678.
With C82U A111G A120U A145C C150U the reverse-splicing fitness was 0.011.
Variant C82U A111G A145C C169U U176G has a reverse-splicing fitness of 0.00386.
For C82U A111G A145C C169U U176C, the reverse-splicing fitness was 0.00903.
Variant C82U A111G A145C C169U U176A has a reverse-splicing fitness of 0.0108.
C82U A111G A120U C150A C169G U176A showed a reverse-splicing fitness of 0.0073.
Work on C82U A111G A120U C150A C169G U176G yielded a reverse-splicing fitness of 0.00213.
Work on C82U A111G A120U C150A C169G U176C yielded a reverse-splicing fitness of 0.00439.
Variant C82U A111G A145G C150A C169A has a reverse-splicing fitness of 0.0102.
With C82U A111G A145G C150A C169U the reverse-splicing fitness was 0.01.
C82U A111G A145G C150A C169G gave a reverse-splicing fitness of 0.0093.
With C82U A111G A120U A145U C150U C169U U176G the reverse-splicing fitness was 0.00192.
C82U A111G A120U A145U C150U C169U U176C gave a reverse-splicing fitness of 0.00261.
C82U A111G A120U A145U C150U C169U U176A gave a reverse-splicing fitness of 0.00262.
In the case of C82U A111G A120U A145G C150U C169A U176A, the reverse-splicing fitness is reported as 0.00487.
For C82U A111G A120U A145G C150U C169A U176C, the reverse-splicing fitness was 0.00369.
C82U A111G A120U A145G C150U C169A U176G showed a reverse-splicing fitness of 0.00217.
Variant C82U A111G A145C C150A C169G U176G has a reverse-splicing fitness of 0.0054.
For C82U A111G A145C C150A C169G U176A, the reverse-splicing fitness was 0.0215.
C82U A111G A145C C150A C169G U176C gave a reverse-splicing fitness of 0.0112.
C82U A111G A120U C150U C169G U176C gave a reverse-splicing fitness of 0.00322.
Work on C82U A111G A120U C150U C169G U176G yielded a reverse-splicing fitness of 0.00216.
C82U A111G A120U C150U C169G U176A showed a reverse-splicing fitness of 0.00733.
Work on C82U A111G A145C C150U U176G yielded a reverse-splicing fitness of 0.0185.
In the case of C82U A111G A145C C150U U176A, the reverse-splicing fitness is reported as 0.0454.
Variant C82U A111G A145C C150U U176C has a reverse-splicing fitness of 0.0617.
In the case of C82U A111G A120U C169U U176G, the reverse-splicing fitness is reported as 0.0017.
With C82U A111G A120U C169U U176C the reverse-splicing fitness was 0.00442.
C82U A111G A120U C169U U176A showed a reverse-splicing fitness of 0.00282.
In the case of C82U A111G A145C C150U C169G, the reverse-splicing fitness is reported as 0.00755.
Work on C82U A111G A145C C150U C169U yielded a reverse-splicing fitness of 0.00947.
Variant C82U A111G A145C C150U C169A has a reverse-splicing fitness of 0.00735.
With C82U A111G A145C C150U C169U U176C the reverse-splicing fitness was 0.00834.
For C82U A111G A145C C150U C169U U176A, the reverse-splicing fitness was 0.0119.
Work on C82U A111G A145C C150U C169U U176G yielded a reverse-splicing fitness of 0.00493.
Variant C82U A111G A120U A145C C150G C169A U176G has a reverse-splicing fitness of 0.00209.
In the case of C82U A111G A120U A145C C150G C169A U176A, the reverse-splicing fitness is reported as 0.00187.
C82U A111G A120U A145C C150G C169A U176C showed a reverse-splicing fitness of 0.00258.
C82U A111G A120U C150A U176G showed a reverse-splicing fitness of 0.00238.
With C82U A111G A120U C150A U176A the reverse-splicing fitness was 0.00587.
C82U A111G A120U C150A U176C showed a reverse-splicing fitness of 0.00592.
Variant C82U A111G A120U C150A has a reverse-splicing fitness of 0.00814.
In the case of C82U A111G A120U C150U, the reverse-splicing fitness is reported as 0.0236.
In the case of C82U A111G A120U C150G, the reverse-splicing fitness is reported as 0.00763.
In the case of C82U A111G A145C C169A U176C, the reverse-splicing fitness is reported as 0.00406.
C82U A111G A145C C169A U176G gave a reverse-splicing fitness of 0.00408.
In the case of C82U A111G A145C C169A U176A, the reverse-splicing fitness is reported as 0.00798.
C82U A111G A120U A145G C150U C169G U176C showed a reverse-splicing fitness of 0.00432.
Work on C82U A111G A120U A145G C150U C169G U176A yielded a reverse-splicing fitness of 0.00913.
With C82U A111G A120U A145G C150U C169G U176G the reverse-splicing fitness was 0.00189.
Work on C82U A111G A145G C150A U176A yielded a reverse-splicing fitness of 0.0328.
C82U A111G A145G C150A U176C showed a reverse-splicing fitness of 0.0481.
C82U A111G A145G C150A U176G gave a reverse-splicing fitness of 0.0108.
For C82U A111G A120U A145G, the reverse-splicing fitness was 0.0428.
Work on C82U A111G A120U A145U yielded a reverse-splicing fitness of 0.0429.
For C82U A111G A145C C150A C169A, the reverse-splicing fitness was 0.0083.
Work on C82U A111G A145C C150A C169U yielded a reverse-splicing fitness of 0.00807.
